# From ChEMBL document CHEMBL4482315, “In vivo imaging of sulfotransferases” (2013)
# Values joined by “and” are separate entries in the source; they are usually repeats but may differ in a detail not shown here. Equal entries are not always repeated.
# B1: Sulfotransferase 2A1 (Homo sapiens) (protein)
# chain: MSDDFLWFEGIAFPTMGFRSETLRKVRDEFVIRDEDVIILTYPKSGTNWLAEILCLMHSKGDAKWIQSVPIWERSPWVESEIGYTALSETESPRLFSSHLPIQLFPKSFFSSKAKVIYLMRNPRDVLVSGYFFWKNMKFIKKPKSWEEYFEWFCQGTVLYGSWFDHIHGWMPMREEKNFLLLSYEELKQDTGRTIEKICQFLGKTLEPEELNLILKNSSFQSMKENKMSNYSLLSVDYVVDKAQLLRKGVSGDWKNHFTVAQAEDFDKLFQEKMADLPRELFPWE
# B2: Sulfotransferase 1E1 (Homo sapiens) (protein)
# chain: MNSELDYYEKFEEVHGILMYKDFVKYWDNVEAFQARPDDLVIATYPKSGTTWVSEIVYMIYKEGDVEKCKEDVIFNRIPFLECRKENLMNGVKQLDEMNSPRIVKTHLPPELLPASFWEKDCKIIYLCRNAKDVAVSFYYFFLMVAGHPNPGSFPEFVEKFMQGQVPYGSWYKHVKSWWEKGKSPRVLFLFYEDLKEDIRKEVIKLIHFLERKPSEELVDRIIHHTSFQEMKNNPSTNYTTLPDEIMNQKLSPFMRKGITGDWKNHFTVALNEKFDKHYEQQMKESTLKFRTEI
# B3: Sulfotransferase 1A1 (Homo sapiens) (protein)
# chain: MELIQDTSRPPLEYVKGVPLIKYFAEALGPLQSFQARPDDLLISTYPKSGTTWVSQILDMIYQGGDLEKCHRAPIFMRVPFLEFKAPGIPSGMETLKDTPAPRLLKTHLPLALLPQTLLDQKVKVVYVARNAKDVAVSYYHFYHMAKVHPEPGTWDSFLEKFMVGEVSYGSWYQHVQEWWELSRTHPVLYLFYEDMKENPKREIQKILEFVGRSLPEETVDFVVQHTSFKEMKKNPMTNYTTVPQEFMDHSISPFMRKGMAGDWKTTFTVAQNERFDADYAEKMAGCSLSFRSEL
# Tests used:
# not read = substrate: Oc1ccc2ccccc2c1; assay: not read
# [1] = substrate: CC(=O)Nc1ccc(-c2nc3ccc(O)cc3s2)cc1; assay: (§1) Substrate activity at SULT1E1 (unknown origin) expressed in baculovirus infected Sf9 cells assessed as substrate Km incubated for 15 mins using [35S-]PAPS as sulfate donor by TLC analysis; parameters: species or system Homo sapiens
# [2] = substrate: CN(C)c1ccc(-c2nc3cc(O)ccc3s2)cc1; assay: as §1; parameters: species or system Homo sapiens
# [3] = substrate: CN(C)c1ccc(-c2nc3ccc(O)cc3s2)cc1; assay: as §1; parameters: species or system Homo sapiens
# [4] = substrate: CNc1ccc(-c2nc3cc(O)ccc3s2)cc1; assay: as §1; parameters: species or system Homo sapiens
# [5] = substrate: CNc1ccc(-c2nc3ccc(O)cc3s2)cc1; assay: as §1; parameters: species or system Homo sapiens
# [6] = substrate: COc1ccc(-c2nc3ccc(O)cc3s2)cc1; assay: as §1; parameters: species or system Homo sapiens
# [7] = substrate: CS(=O)(=O)c1ccc(-c2nc3ccc(O)cc3s2)cc1; assay: as §1; parameters: species or system Homo sapiens
# [8] = substrate: Cc1nc2cc(O)ccc2s1; assay: as §1; parameters: species or system Homo sapiens
# [9] = substrate: Cc1nc2ccc(O)cc2s1; assay: as §1; parameters: species or system Homo sapiens
# [10] = substrate: N#Cc1ccc(-c2nc3ccc(O)cc3s2)cc1; assay: as §1; parameters: species or system Homo sapiens
# [11] = substrate: Nc1ccc(-c2nc3ccc(O)cc3s2)cc1; assay: as §1; parameters: species or system Homo sapiens
# [12] = substrate: O=[N+]([O-])c1ccc(-c2nc3ccc(O)cc3s2)cc1; assay: as §1; parameters: species or system Homo sapiens
# [13] = substrate: Oc1ccc2ccoc2c1; assay: as §1; parameters: species or system Homo sapiens
# [14] = substrate: Oc1ccc2ccsc2c1; assay: as §1; parameters: species or system Homo sapiens
# [15] = substrate: Oc1ccc2nc(-c3ccc(F)cc3)sc2c1; assay: as §1; parameters: species or system Homo sapiens
# [16] = substrate: Oc1ccc2nc(-c3ccc(I)cc3)sc2c1; assay: as §1; parameters: species or system Homo sapiens
# [17] = substrate: Oc1ccc2nc(-c3ccccc3)sc2c1; assay: as §1; parameters: species or system Homo sapiens
# [18] = substrate: Oc1ccc2ncoc2c1; assay: as §1; parameters: species or system Homo sapiens
# [19] = substrate: Oc1ccc2ncsc2c1; assay: as §1; parameters: species or system Homo sapiens
# [20] = substrate: Oc1ccc2occc2c1; assay: as §1; parameters: species or system Homo sapiens
# [21] = substrate: Oc1ccc2sccc2c1; assay: as §1; parameters: species or system Homo sapiens
# [22] = substrate: Cc1nc2cc(O)ccc2s1; assay: (§2) Substrate activity at SULT1A3 (unknown origin) expressed in baculovirus infected Sf9 cells assessed as substrate Km incubated for 15 mins using [35S-]PAPS as sulfate donor by TLC analysis; parameters: species or system Homo sapiens
# [23] = substrate: Oc1ccc2[nH]ccc2c1; assay: as §2; parameters: species or system Homo sapiens
# [24] = substrate: Oc1ccc2cc[nH]c2c1; assay: as §2; parameters: species or system Homo sapiens
# [25] = substrate: Oc1ccc2ccoc2c1; assay: as §2; parameters: species or system Homo sapiens
# [26] = substrate: Oc1ccc2ccsc2c1; assay: as §2; parameters: species or system Homo sapiens
# [27] = substrate: Oc1ccc2ncoc2c1; assay: as §2; parameters: species or system Homo sapiens
# [28] = substrate: Oc1ccc2ncsc2c1; assay: as §2; parameters: species or system Homo sapiens
# [29] = substrate: Oc1ccc2occc2c1; assay: as §2; parameters: species or system Homo sapiens
# [30] = substrate: Oc1ccc2sccc2c1; assay: as §2; parameters: species or system Homo sapiens
# [31] = substrate: CN(C)c1ccc(-c2nc3cc(O)ccc3s2)cc1; assay: (§3) Substrate activity at SULT1A1 (unknown origin) expressed in baculovirus infected Sf9 cells assessed as substrate Km incubated for 15 mins using [35S-]PAPS as sulfate donor by TLC analysis; parameters: species or system Homo sapiens
# [32] = substrate: CNc1ccc(-c2nc3cc(O)ccc3s2)cc1; assay: as §3; parameters: species or system Homo sapiens
# [33] = substrate: Cc1nc2cc(O)ccc2s1; assay: as §3; parameters: species or system Homo sapiens
# [34] = substrate: Cc1nc2ccc(O)cc2s1; assay: as §3; parameters: species or system Homo sapiens
# [35] = substrate: Oc1ccc2[nH]ccc2c1; assay: as §3; parameters: species or system Homo sapiens
# [36] = substrate: Oc1ccc2[nH]cnc2c1; assay: as §3; parameters: species or system Homo sapiens
# [37] = substrate: Oc1ccc2cc[nH]c2c1; assay: as §3; parameters: species or system Homo sapiens
# [38] = substrate: Oc1ccc2ccoc2c1; assay: as §3; parameters: species or system Homo sapiens
# [39] = substrate: Oc1ccc2ccsc2c1; assay: as §3; parameters: species or system Homo sapiens
# [40] = substrate: Oc1ccc2nc(-c3ccccc3)sc2c1; assay: as §3; parameters: species or system Homo sapiens
# [41] = substrate: Oc1ccc2ncoc2c1; assay: as §3; parameters: species or system Homo sapiens
# [42] = substrate: Oc1ccc2ncsc2c1; assay: as §3; parameters: species or system Homo sapiens
# [43] = substrate: Oc1ccc2occc2c1; assay: as §3; parameters: species or system Homo sapiens
# [44] = substrate: Oc1ccc2sccc2c1; assay: as §3; parameters: species or system Homo sapiens
protein,measurement,setting,value
B1,Km,not read,254 µM
same,Vmax,not read,0.00019 µmol/min/mg
B2,Vmax,not read,0.00339 µmol/min/mg and 0.00486 µmol/min/mg
same,Km,[1],2.36 µM
same,Vmax,[1],0.00204 µmol/min/mg
same,Km,[2],0.39 µM
same,Vmax,[2],0.00098 µmol/min/mg
same,Km,[3],1.33 µM
same,Vmax,[3],0.00149 µmol/min/mg
same,Km,[4],1.31 µM
same,Vmax,[4],0.00182 µmol/min/mg
same,Km,[5],1.6 µM
same,Vmax,[5],0.0021 µmol/min/mg
same,Km,[6],0.9 µM
same,Vmax,[6],0.00197 µmol/min/mg
same,Km,[7],1.32 µM
same,Vmax,[7],0.00357 µmol/min/mg
same,Km,[8],15.9 µM
same,Vmax,[8],0.0047 µmol/min/mg
same,Km,[9],6.96 µM
same,Vmax,[9],0.00329 µmol/min/mg
same,Km,[10],0.25 µM
same,Vmax,[10],0.00433 µmol/min/mg
same,Km,[11],1.63 µM
same,Vmax,[11],0.00278 µmol/min/mg
same,Km,[12],0.12 µM
same,Vmax,[12],0.00343 µmol/min/mg
same,Km,[13],90.9 µM
same,Vmax,[13],0.00272 µmol/min/mg
same,Km,[14],11.5 µM
same,Vmax,[14],0.00287 µmol/min/mg
same,Km,[15],0.92 µM
same,Vmax,[15],0.00416 µmol/min/mg
same,Km,[16],0.52 µM
same,Vmax,[16],0.00295 µmol/min/mg
same,Km,[17],0.99 µM
same,Vmax,[17],0.00318 µmol/min/mg
same,Km,[18],525 µM
same,Vmax,[18],0.0033 µmol/min/mg
same,Km,[19],61.3 µM
same,Vmax,[19],0.0023 µmol/min/mg
same,Km,[20],177 µM
same,Vmax,[20],0.00179 µmol/min/mg
same,Km,[21],38 µM
same,Vmax,[21],0.00291 µmol/min/mg
same,Km,[22],1040 µM
same,Vmax,[22],0.0101 µmol/min/mg
same,Km,[23],575 µM
same,Vmax,[23],0.00366 µmol/min/mg
same,Km,[24],2710 µM
same,Vmax,[24],0.0195 µmol/min/mg
same,Km,[25],377 µM
same,Vmax,[25],0.00888 µmol/min/mg
same,Km,[26],157 µM
same,Vmax,[26],0.00982 µmol/min/mg
same,Km,[27],1070 µM
same,Vmax,[27],0.0115 µmol/min/mg
same,Km,[28],280 µM
same,Vmax,[28],0.00809 µmol/min/mg
same,Km,[29],385 µM
same,Vmax,[29],0.00834 µmol/min/mg
same,Km,[30],251 µM
same,Vmax,[30],0.00612 µmol/min/mg
B3,Km,not read,0.17 µM
same,Vmax,not read,0.0146 µmol/min/mg
same,Km,[31],0.04 µM
same,Vmax,[31],0.011 µmol/min/mg
same,Km,[32],0.012 µM
same,Vmax,[32],0.0039 µmol/min/mg
same,Km,[33],5.9 µM
same,Vmax,[33],0.0193 µmol/min/mg
same,Km,[34],6.2 µM
same,Vmax,[34],0.0103 µmol/min/mg
same,Km,[35],6.62 µM
same,Vmax,[35],0.0128 µmol/min/mg
same,Km,[36],19.3 µM
same,Vmax,[36],0.0085 µmol/min/mg
same,Km,[37],0.23 µM
same,Vmax,[37],0.0203 µmol/min/mg
same,Km,[38],0.18 µM
same,Vmax,[38],0.0265 µmol/min/mg
same,Km,[39],0.08 µM
same,Vmax,[39],0.00978 µmol/min/mg
same,Km,[40],0.045 µM
same,Vmax,[40],0.00525 µmol/min/mg
same,Km,[41],5.5 µM
same,Vmax,[41],0.0132 µmol/min/mg
same,Km,[42],2.08 µM
same,Vmax,[42],0.0103 µmol/min/mg
same,Km,[43],0.62 µM
same,Vmax,[43],0.00987 µmol/min/mg
same,Km,[44],0.14 µM
same,Vmax,[44],0.0112 µmol/min/mg
